Experiment: soluble fraction after stress (log2 fold change); higher = more stays soluble; pooled small domains, quantitative proteomics
Conditions: stress: 50 degC
Outline: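 Each library was heated to 50°C as a stress step. The libraries, made up of small protein domains, were pooled and analysed at high throughput by quantitative proteomics. The reported value is the base-two logarithm of the fold change in each protein's soluble amount after stress, taken as a measure of aggregation propensity. The higher the value, the more protein stays in solution.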

Sequence	soluble fraction (log2)
HMNMENIADKIGKIYESLPEDLKLMIKYRDIDDLTYDEIAVKADLPVGTVRSRLHRAREQLLKELEKN	-0.143
HMNMTDVLVVNQTVRGGTQITESMLSVKKVDKSSLPDNYLKASLKDEVVGKYFDLGLTSGGVLTKDNISVS	0.00597
HMKDLTIRQQQFLNYIKDHLSLTGFPPTRSDIANEMGFKSPNAAEDHLRALARKGAIEIVPGTSRGIRLP	-0.24
HMDEIDYSKYSITTSNRIINIDGVQSKVELFDVSGRSIQSTMVTGKFSSRPLNAGFYIIHVDGYSVKVSV	-0.889
HMQTTQQLIRNLRLKQAATLLADKRHSITEVATLTGFTHPTYFATAFREMFGVSPSEYMEQHI	-0.86
HMPSGRIRWFDAKKGYGFIAGDDGKDVFLPQTALPQGVRNPRKGAKVEYSVIEGNRGQVAMGVTMV	-0.0368
HMDLDSGVAVLRTLMSQHNLQTDDFQNEIGGKSMVSMILNGTRKLSKNHIQALSGRFNLSPALFF	-0.962
HMDATFKVRVSVPDLNIRSGPGTNYAATGRFTGVGVFTITAVQSGQGSSSGWGKLKSGAGWIALDYAKR	-2.39
HMDRKFFYEDQYQDYLGEELKVSFFDTDNKKTVRGTLSEVTPHGIKINLEQETQEIPFSSIIQANLI	0.201
HMKKNTEALDYYKKAGANFPEDEVISSEYLFRAAQLQEVLGKTDEAVAIYKDIKAKYPTTEIGLNVDKFIL	-0.0868
HMTPVFGEEETVLQAAVRGIISDTDQWTMEAEAKSMLNQLGFSDYEEKMAHMSGGQKKRVALVNALLTP	0.0128
HMAGTDLSERESEIAMLLLKGYPYKLIASRLYISESTVKSHVQNIYGKLGIHSRTELIEQFSAS	-0.558
HMEVGVSGTVFNTDSLNVRKGPGTNFDTVTSLKRGSVVEVFEQSAVDGTVWGRIANGWVNMQYVSL	-0.093
HMGVNEGVNKLFKTIQETPGKRMPYYALATDVPEKTIERWLKQLREEGKIEFKGSAKTGGYFVIDK	0.0649
HMDIKEIIKNRRIELGLTLKEVATAVGVSEGTVSRWESGNITNMKRNKIAALAKTLQIPPTTI	-0.259
HMTELNNTQRAAVLLLALDEDSAAEVFKHLSAREVQEVSQEMAKLGNISHDQMRQVLDDFYDESEQF	-0.0259
HMKQAVESAEAIFEEIARIKKLSLVKSEAEEIARKTGLQKFTIASQLLKNQHAYEMDESEIASLWDKKI	0.0237
HMTTTSGLIKTIQTGRRKLGMDDETYRALLADVSGGKTSSKDLNAYQLKEVLRRMREAGFRS	0.218
HMRPRGTRLPTGWTPSSDALDWTKAEKPGLDPLQTLEKFRDYWTAQPGQKGVKTDWDATWRNWVRREIP	0.172
HMNGELSQRQWQILRLIAQGLSNEQMARQLFVAPSTIKTHINHLYAKLGVRTRAEAQAIARQKLMA	-0.619
HMLELTVSDKMARLMAWRNRRRVNLSDQELHRIAAAPKQSPESILKMLPGFLQDSVPEIWAELTGGRP	-0.192
HMAAPELLTVRERQVAALISDGLSNQQIAHRLHLEVTTVKAHIGSIFNRLDMNNRVQIAIWAHDRQLVFS	-0.266
HMGAVDIATARQLISEIGLPIMLKAEGGGGGRGIFAIHNEAELEDAFFKASTMAQASFGNPRLFVEKF	-0.228
HMVERLVVSPGAGVFAPNKAIANGTRISVGDVLGMVGEQEVRSLFDGVLQSFISVDGERLTAHQPVAWLRT	-0.536
HMKKYEIIFNDLKQSIVNGKYSNEERLPPEETLAKKYQTSRVPVQQALNALVGIGMVKRIAGSGTYVTY	-0.628

Sequence	soluble fraction (log2)
HMGSVHDAATDRIREMILGGQFEPGERLRQDDLATSLGVSTMPVREALRQLQAEGLVVFYPRKGAVVAR	0.142
HMKGERHNKILELIQQHAIDRQEDLLRYLKEAGFQVTQATVSRDIRELHLVKVAAGGGQYRYVSAAAAS	-0.0903
HMRQIRELFRLKFGSLLPTSDRQIAAQLGVARSTVAEYLERARAAGLSWPLPLDLSDADLEERLFA	-2.75
HMVFLPDEIFRLKVIKAGEGPEQGVGYLDDGTMVVIEGARDRIGDELEVRVTSTLQTNAGKMIFTKFE	-0.186
HMATPRLAIVPQSAAGRRLDAVLAELFPEYSRSRLSAWIKTGDVMVDGAAPRGRDPVRGGEEITLTAVQ	-0.033
HMGPEISEDAKVVFDRLKNHDEILLNNFKSEFDLSNKKWDKIIKELRGNDLISIIKSEDGNLFIKP	-0.00901
HMKDTFHNLSEEKRERIIRAALGEFAASGYEKATLDGVVQAAGISKGGLYEYISSKEDLFRYLLEYSYD	-1.53
HMFGELTPDTAKRFLLTAREQEMASLIAQGLTNKEIAFRLGISEATVRTHIYNLFQKVGVQSRIELLNVLH	-0.289
HMQAGILTDTAAKNARIKKIDTERLEAELDQKRIVIVTGFQGVDRNQNITTLGRGGSDTSAVALAAAVSIT	0.185
HMIKSIRELAEVITLWKNQGKTILIAEHRLSYLMDLADRVLYMKDGQIENDFSMADFRKIPPDEISRMGLR	-0.126
HMPTMVAQINEIVQAKLPGSGLKDYTIRLVESQRDGVVVWVNGTRYLGVDEVAEPQVQALLKEAVAEWERS	-0.132
HMSFPDTYFKGNKVIGLSYNDLKKFLNNAGYSKFDEEVEEWGEKRVSIEDDMVDFYLEDDKVVSI	-0.233
HMDTLRARQEAAYRFLSAIAGDWRNYEEANRALFAGDAARFQDLTESWPADVRDHARHLASAAFSS	-0.543
HMQNYLEVLRLHELGMGQRKIAQQVHTSRDTIRKIIAIAENQGLNYSNLIGKTDNELSKVFG	-0.307
HMDQTKYDAIITEAKKLTAEGQYKESEEKLATIPVSDLGKPHYSIVKETVEKLNNQNNEGLKRQEEVAVE	-0.02
HMGPAAGVVEKYNLAHLSTGEMIRKEIAEGSDFGKMAAGIINKGELLSDEFVVALIENSIEHHKNVDGFLF	-0.00841
HMEEKEIGQTLSVKIRENVLSKLDMTRDLEDEEVKHIIEHEIWLAAKKHYISLEERNSIKRGIFNSL	-0.573
HMIDMQIDTARFGTLGVDDDKIITFPKGLPGFEDERRFFLMDHSGSSKIKWLHSADNPGLALV	-0.0658
HMDLATQHAAKVNAAILAARRFEREGSWRQVAAKYSEALQLMPGNEQASRGYQQAMAMLDERD	0.0786
HMIINFDAIRLTTELNKYNRHKAIPNSFFDGTFTILDVRDLYDSLSPKVQKIADTLIEQYNVDVKQ	-1.85
HMKLVAAGYHQNRLLVLLGIQAEELQAKRLLASFDRFRGREATPKPPIHDSARRWLRDTYHHVMNQVPVEL	-1.07
HMSELADDPVYTALEKAADKAGLQLTVRILNDLADAVLKRGKKKLTAAQAGKVIARAESELAKSRID	-0.0759
HMENTIPSVIGRTLSDGVFLLESYGYVKGNVSEEFSEMPIGVIIRQFPGAGSAAEAGTRVDLVVSKGEEIV	-0.0523
HMGGFNATTLQNIEELRRSLSDADQFGRHEVIETIGGSDSRAGKLLKKMLEAGIIEQVKGHGKGRYRFKRT	-0.0136
HMGETWYEILEISSDATTEEIRQAYFEQARQYHPDTNPGELAREWFYQVQEAYETLSDPDRRRQYDESIKG	-0.402

Sequence	soluble fraction (log2)
HMVLVKFEWTPPDARILVDDHPVEARDKEMELPEGTHHVQALAPRGSGYESTVTDIEVRQGMDPVRIAL	-0.182
HMEILTLEELKRLMAKAKLKQNQISGHAGVSKQQISMILAGKRNITKDVSDNLKANLAEYFP	-0.462
HMQLDLNENEKIIFEILQNNKTMQLSNLKTQTELSNKGWDKAIKSLTKQGLAKVSKIDNELIVEFL	-0.249
HMRSLVDRSVQAVTDHIRENALRVGDSLPGEAYFATSLGVSRAVMREAFGALAALRVIDVGNGRKPRVGAI	-0.58
HMRYLMPDLVNRRYEPVRSLLEARGIRFGNVIFEPYEGLPPGIVLRQDPPAGHPLPRRRTVSLVVSGPGGR	-1.88
HMAYSEEERNLIRSRLKDVAAALFKEKGIRDTNIDEIYTPVGISKTFFYSFFPSKAVLAIAIMK	0.0382
HMIYNSGTTDSRGEAIVGGYLVTVTDTDTKDPVANAAVTLHKDNSISIRLPNSRLLDYADQTTVTVQLV	-0.0327
HMRDFTQPQTASIGPRMREALARGTMTVEELREQFRTQEFPHESVRTAFLEELERVAAELGLA	-0.0676
HMNPFTHEEINLMSIYNAAGTREGLIAALTEMWGYLDAEETELRELADSALAKLRGITDAEYAALELE	-0.633
HMNLSSETLSEMEARIGQMGVVELQDRRAYLLQEQEGTQNPSRLKEIADELSAIQKALVALV	0.1
HMRKTYHVDAYQDDKWWVLQVQEMPNAISQVKSLDQADEWIREAINIVSNEPEDSFDVVIIPV	-0.612
HMTETNSVTINERLTLYRRSRSGRWQARVKLNTGEWHRFSTGTADFEKAKESAHRELHNVGFRAENNLPQ	-0.598
HMDPSDQLYTVPPSAEGLRLDLFLVQHVPHMTRALATQLTGAGQVRVNGRRAKKGDRLPSGAQVRLEQAP	-0.256
HMDKFTYVVKKEDEQYQIKDILRHNFTFSSRLRKKLKQNNSIFLNGAETVGWATPKEGDIISVRLP	-0.433
HMGGKWKPIILYYININSVARYSELKRFIPSINERMLTRQLRELEEDNLIERKVYPIVPPKVEYRLTEYGK	0.0177
HMGDIFTAEDAKERIDYSGVDGIMLARGIFGNPWLIRDIREYLEYGKILHPVTQLDRVNMAIEHTRKT	0.0388
HMQTYNQLKRGMTEWIQAGQKQKAYELFAGVAGQLSLSSAAGKKQYNELVTILNRAGFGIPLE	-0.428
HMQNWFADPKFEMFEDYGDAQSFYDTETKNIYVVMAEYGQKGSNTIQEITPDSEEYIPNYEKYKEYMENK	-0.387
HMPGLPLWAFSTRGSAIHTGASFRDGDGLLFGPESRGLPDWLLEEVGQDRVLRLPMRPGSRSLNLSNAV	-0.304
HMLPLLAFDEKLNRLGYGGGFYDRTLASLAHKGNTITAIGIAYESQKMDKVPTGYFDRPLDGVLTPSGLIM	0.0274
HMQNPYDTLGVSRDSTDAEIKKAYRKLAMEHHPDKGGDSQRFAEINNAYDNIKDMSSRQNFENDPSNFQ	0.288
HMSQPYFELAAADMEALRNALSTIREIESVVLSGKIFHVEVREDLDPGTMNKLAFERGITLTHLVKKKN	-0.0763
HMVVYFGGPVMLERGIVLHTPDISTKGTINVSDDFALTAHKEILDNINKDTSSLQFKLAIGH	-0.895
HMEDESSIERYLGSGAIKGIGPSLAARIVKKFGKDTFRIIEQEPERLAEIKGISERKAMEISTLMEEK	0.0193
HMYEDIDSAYRILEINSTVSNQEIKNAYRRMAKKYHPDKVAHLGVEHQKGAEEKFKKVQEAYILIKKRRG	-0.557
